Test results reported in publication PMC10312659.

Target: Polyketide synthase 13 (Pks13) of Mycobacterium smegmatis, endogenous, with native substrates bound (Mycobacterium smegmatis) (UniProt A0R617)
Test: SEC

stoichiometry N: 4
Substance: Polyketide synthase 13 (Pks13) of Mycobacterium smegmatis, endogenous, with native substrates bound (from UniProt A0R617 1-1816) (enzyme)
